Test results: patent publication US10919966B2, “Antibody to programmed death-ligand 1 (PD-L1) and use thereof” (Y-BIOLOGICS INC., dated 2021)
Blank lines part the entries; values can stand above or below the binder they belong to.

Experiments:
PD-L1-hFc [1] = target: T1, PD-L1-hFc (human, UniProt Q9NZQ7); assay: SPR, ProteOn XPR36, PD-L1-hFc immobilised on GLC chip, antibody 30 nM to 0.123 nM
Method: (§1) A ProteOn XPR36 (BioRad) instrument was used. The GLC sensor chip (BioRad) was mounted on the instrument and washed with PBST buffer, and the carboxymethyldextran surface was activated with an EDC/sulfo-NHS mixed solution. PD-L1-hFc dissolved at a concentration of 5 ug/ml in a 10 mM sodium acetate buffer solution (pH 5.0) was injected and immobilized on the GLC sensor chip.
In order to deactivate the activated carboxyl groups that remain unreacted with the PD-L1 protein, 1 M ethanolamine was flowed and 10 mM glycine (pH 2.0) was injected in order to wash proteins that remain unbound to the sensor chip.

cynomolgus PD-L1 protein = cynomolgus PD-L1 protein (cynomolgus, UniProt G7PSE7); assay: SPR, ProteOn XPR36, cynomolgus PD-L1 protein (construct not described)
PD-L1-hFc [2] = target: T1, PD-L1-hFc; assay: SPR, ProteOn XPR36, human PD-L1 (PD-L1-hFc immobilised)
Method: as §1
In order to deactivate the activated carboxyl groups that remain unreacted with the PD-L1 protein, 1 M ethanolamine was flowed and 10 mM glycine (pH 2.0) was injected in order to wash proteins that remain unbound to the sensor chip. Then, sensogram data were collected during binding and dissociation over time while allowing the antibodies to flow at a flow rate of 30 µL/min (30 nM to 0.123 nM) for 10 min using PBST buffer.

T1 sequence (Q9NZQ7 other isoform, or with tags, fused parts or gaps): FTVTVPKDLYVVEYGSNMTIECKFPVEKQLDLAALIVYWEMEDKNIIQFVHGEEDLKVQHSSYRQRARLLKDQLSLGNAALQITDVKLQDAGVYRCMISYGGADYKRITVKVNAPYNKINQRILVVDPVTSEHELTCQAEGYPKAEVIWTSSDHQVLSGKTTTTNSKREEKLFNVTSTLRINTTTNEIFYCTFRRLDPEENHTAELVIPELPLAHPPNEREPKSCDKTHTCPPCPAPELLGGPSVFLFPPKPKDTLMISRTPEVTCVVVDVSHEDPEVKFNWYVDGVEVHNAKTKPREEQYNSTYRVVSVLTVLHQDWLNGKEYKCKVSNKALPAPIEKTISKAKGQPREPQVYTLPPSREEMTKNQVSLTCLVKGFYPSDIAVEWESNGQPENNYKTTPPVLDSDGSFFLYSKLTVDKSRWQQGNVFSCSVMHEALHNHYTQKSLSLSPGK

- Kd (PD-L1-hFc [1]): 45 pM
B1: PDL1-16E12 (antibody, V domains shown)
VH: QMQLVQSGAEVKKPGSSVKVSCKASGGTFSSYAISWVRQAPGQGLEWMGRIIPILGIANYAQKFQGRVTITADKSTSTAYMELSSLRSEDTAVYYCAKPRDGYNLVAFDIWGQGTMVTVSS
VL: QLVLTQPPSVSGAPGQTVTISCTGSSSNIGAGYDVHWYQQLPGTAPKLLIYGNNNRPSGVPDRFSGSKSGALASLAITGLQAEDGADYHCQSYDNSLSAHAVFGTGTKVTVL

- Kd (cynomolgus PD-L1 protein): 1 pM
- koff (cynomolgus PD-L1 protein): 1e-07 s⁻¹
- Kd (PD-L1-hFc [2]): 1 pM
- koff (PD-L1-hFc [2]): 1e-07 s⁻¹
- kon (PD-L1-hFc [2]): 310000 M⁻¹ s⁻¹
B2: PDL1-16E12 (LS/4F5) (antibody, V domains shown)
VH: B1 VH
VL: QLVLTQPPSVSGAPGQRVTISCTGSSSNIGAGYDVHWYQQLPGAAPKLLIYGDINRPSGVPDRFSGSKSGISASLAITGLQAEDEADYYCQSYDSSLSGGVFGGGTKLTVL
